One assay deals with Abl2 SH2 domain (UniProt Q4JIM5). The assay is described as follows: SH2-coupled bead pull-down from lysate, blot. The settings on record: reference: wild type.
Assay [1] deals with Abl2 Src homology 2 (SH2) domain (UniProt Q4JIM5). Nature of the assay: pull-down; Abl2 SH2 covalently linked to AminoLink beads, 1 μM; 0 to 2 μM PDGFRβ CD; 1 h at 4 °C; 50 mM Hepes pH 7.25, 150 mM NaCl, 5% glycerol, 1 mM DTT; SDS-PAGE, Coomassie densitometry, one-site specific binding fit.

Sequence of UniProt Q4JIM5 (Q4JIM5 173-263): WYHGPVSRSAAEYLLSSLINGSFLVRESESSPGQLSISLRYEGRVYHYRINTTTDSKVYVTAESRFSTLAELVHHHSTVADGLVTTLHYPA

For PDGFRβ (from UniProt P09619) Y751F, in the assay with Abl2 SH2 domain (sites Y751), the other: percent reduction relative to WT was found to be 10%.

In the assay with Abl2 SH2 domain (sites Y771), PDGFRβ (from UniProt P09619) Y771F displayed an other: percent reduction relative to WT of 90%.

Consider “autophosphorylated PDGFRβ cytoplasmic domain (CD) (from UniProt P09619 554-1106) (domain or fragment)”, for which the Kd (commonly the free concentration of one partner at which half of the binding sites on the other are occupied at equilibrium, for simple one-to-one binding) in assay [1] was 260 nM.

The record behind these values is paper PMC8259415.
